Read-outs that look alike come from different tables or passages of the source.
Experiments:
[1] = molecular target: T1, CX3CR1 nucleosome (human core histones, wild type) (human, UniProt P04908 1-124; O60814 1-124; P68431 1-136; P62805 1-103)
[2] = molecular target: T1, CX3CR1 nucleosome (human core histones, …); experiment: with scFv

Kd [1]: 1700 nM | Kd [2]: 1500 nM
B1: MBP-DBDC/EBPα (protein)
chain: MHLQPGHPTPPPTPVPSPHAAPALGAAGLPGPGSALKGLAGAHPDLRTGGGGGGSGAGAGKAKKSVDKNSNEYRVRRERNNIAVRKSRDKAKQRNVETQQKVLELTSDNDRLRKRVEQLSRELDTLRGIFRQLPESSLVKAMGNCA

From publication doi:10.1101/2023.08.25.554718 (2023)
